The values below come from the supplement of paper PMC10724198.

This data set has as its system Saccharomyces cerevisiae. Kind of data set: protein stability index of tFT-peptide fusion (C-terminal peptide) (PSI (0-1 scale)); higher = more stable (slower turnover). Particulars: temperature: 30 C. Here is the method: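 MPS profiling in S. cerevisiae of the yeast C-terminome library: the last 12 aa of each annotated ORF are fused to the C-terminus of a sfGFP-mCherry timer, after a GGGS linker. Cells are FACS-sorted into 8 mCherry/sfGFP bins and deep-sequenced. PSI runs from 0 (unstable) to 1 (stable); wild type and das1Δ backgrounds, two technical replicates each.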

Where [1] appears, read: genetic background: das1 deletion.

± gives the standard deviation of the averaged measurements.

For EECYLHSESFGY [FRE7 C-terminal 12 aa], the protein stability index reads like this: under setting [1], 0.68 ± 0.028; (genetic background: wild type) 0.664 ± 0.028.
Taken in the same sequence, the figures for EEFINKLVKSMN [RPL7A C-terminal 12 aa] were 0.698 ± 0.029 and 0.705 ± 0.097.
For EEIVGRHSDSAT [YAP6 C-terminal 12 aa], the protein stability index came to 0.6926 ± 0.0035 under setting [1] and 0.69 ± 0.011 (genetic background: wild type).
For EEKKKKKIAESK [TIM50 C-terminal 12 aa], in that order: 0.681 ± 0.06 and 0.64 ± 0.044.
For EELKKLSNPDMN [CUP9 C-terminal 12 aa], the protein stability index came out at 0.713 ± 0.059 under setting [1] and 0.686 ± 0.0076 (genetic background: wild type).
Taken in the same sequence, the figures for EETEAQAEPVEA [RPS3 C-terminal 12 aa] were 0.687 ± 0.013 and 0.663 ± 0.021.
Sequence EFEILDAKKEKD [PIM1 C-terminal 12 aa] showed a protein stability index under setting [1] of 0.699 ± 0.0047 and a protein stability index (genetic background: wild type) of 0.681 ± 0.056.
Taken in the same sequence, the figures for EFKCMSVITAQQ [SEH1 C-terminal 12 aa] were 0.67622 ± 0.00052 and 0.687 ± 0.025.
In the case of EFMKTNTGSKKV [CCR4 C-terminal 12 aa], the protein stability index under setting [1] came to 0.703 ± 0.027 and the protein stability index (genetic background: wild type) was 0.677 ± 0.03.
Consider EFTDEWFKEHSS [STH1 C-terminal 12 aa], for which the protein stability index by setting is: under setting [1], 0.757 ± 0.0035; (genetic background: wild type) 0.719 ± 0.0073.
On to EGGDLEYQHVKI [YCR043C C-terminal 12 aa], for which the protein stability index came out at 0.691 ± 0.0077 under setting [1] and 0.682 ± 0.03 (genetic background: wild type).
For EGIFPANYVRVS [YSC84 C-terminal 12 aa], in that order: 0.663 ± 0.01 and 0.673 ± 0.0097.
“EGPRGETIVERF [YJL047C-A C-terminal 12 aa]”: the protein stability index is, setting by setting: under setting [1], 0.698 ± 0.008; (genetic background: wild type) 0.6955 ± 0.0027.
Turning to EGVGCRYPVVLI [YDR467C C-terminal 12 aa], the protein stability index is 0.7038 ± 0.0063 under setting [1] and 0.666 ± 0.019 (genetic background: wild type).
As to EHKGSIEAGFTS [CSS2 C-terminal 12 aa], the protein stability index reads like this: under setting [1], 0.698 ± 0.023; (genetic background: wild type) 0.715 ± 0.025.
Regarding EHRNIEWEKKTA [POL4 C-terminal 12 aa], the protein stability index is 0.7 ± 0.014 under setting [1] and 0.694 ± 0.054 (genetic background: wild type).
For EINSDFIENFEE [MSH4 C-terminal 12 aa], in that order: 0.701 ± 0.017 and 0.699 ± 0.046.
With EKEFTGNSQSEK [NMA111 C-terminal 12 aa], the protein stability index is, setting by setting: under setting [1], 0.6859 ± 0.006; (genetic background: wild type) 0.742 ± 0.039.
For EKKKNPYWYYQW [GEP3 C-terminal 12 aa], the protein stability index turned out to be 0.735 ± 0.009 under setting [1] and 0.673 ± 0.025 (genetic background: wild type).
Taken in the same sequence, the figures for EKQQRRNMKNAL [RRS1 C-terminal 12 aa] were 0.704 ± 0.034 and 0.703 ± 0.01.
As to EKTRKNISKFFS [CPR7 C-terminal 12 aa], the protein stability index stood at 0.713 ± 0.022 under setting [1] and 0.707 ± 0.013 (genetic background: wild type).
EKVIDGSIEHSS [YNR061C C-terminal 12 aa]: the protein stability index was determined as 0.6642 ± 0.0044 under setting [1] and 0.703 ± 0.017 (genetic background: wild type).
On to EKVRNEGFIKNP [GPM2 C-terminal 12 aa], for which the protein stability index by setting is: under setting [1], 0.716 ± 0.03; (genetic background: wild type) 0.702 ± 0.075.
As to ELANILESDITL [CIN1 C-terminal 12 aa], the protein stability index runs as follows: under setting [1], 0.70881 ± 0.00043; (genetic background: wild type) 0.712 ± 0.022.
For the sequence ELDEIAASLENL [TPM1 C-terminal 12 aa], the protein stability index was 0.7088 ± 0.0027 under setting [1] and 0.69 ± 0.01 (genetic background: wild type).
With ELLCKGICKAAE [HEL1 C-terminal 12 aa], the protein stability index reads like this: under setting [1], 0.6857 ± 0.0035; (genetic background: wild type) 0.674 ± 0.017.
The sequence EMEKNKLKRKRN [YNG2 C-terminal 12 aa] had a protein stability index under setting [1] of 0.668 ± 0.054 and a protein stability index (genetic background: wild type) of 0.699 ± 0.014.
Consider EMVKKHALNGRI [NRS1 C-terminal 12 aa], for which the protein stability index amounted to 0.7115 ± 0.004 under setting [1] and 0.671 ± 0.025 (genetic background: wild type).
ENKNWSIITPSG [YBL086C C-terminal 12 aa]: the protein stability index is, setting by setting: under setting [1], 0.68945 ± 7e-05; (genetic background: wild type) 0.684 ± 0.018.
Taken in the same sequence, the figures for EPMESLRSTTKY [PTR2 C-terminal 12 aa] were 0.734 ± 0.022 and 0.697 ± 0.01.
Taken in the same sequence, the figures for EPNGYIKNLKWT [RXT3 C-terminal 12 aa] were 0.713 ± 0.023 and 0.633 ± 0.034.
Regarding ERLIQQGYLQKI [PSF1 C-terminal 12 aa], the protein stability index runs as follows: under setting [1], 0.698 ± 0.024; (genetic background: wild type) 0.683 ± 0.035.
Consider “ERNGWKFFFKEV [YHR137C-A C-terminal 12 aa]”, for which the protein stability index is, setting by setting: under setting [1], 0.69374 ± 0.00051; (genetic background: wild type) 0.6597 ± 0.0014.
Turning to ERNKKSRPPIYK [ARL3 C-terminal 12 aa], the protein stability index was 0.734 ± 0.03 under setting [1] and 0.735 ± 0.09 (genetic background: wild type).
Taken in the same sequence, the figures for ETLAKLREQGLM [TOM70 C-terminal 12 aa] were 0.6797 ± 0.0058 and 0.692 ± 0.015.
Regarding EVHALNRDHLVA [YHR138C C-terminal 12 aa], the protein stability index runs as follows: under setting [1], 0.692 ± 0.0076; (genetic background: wild type) 0.674 ± 0.023.
EVLDQLEPQDSS [MCM6 C-terminal 12 aa]: the protein stability index was found to be 0.699 ± 0.019 under setting [1] and 0.6847 ± 0.0064 (genetic background: wild type).
Take EYDDDSGNQGVW [GRE1 C-terminal 12 aa]: the protein stability index runs as follows: under setting [1], 0.6914 ± 0.00077; (genetic background: wild type) 0.739 ± 0.049.
As for EYIVNVNEYGHD [YOL153C C-terminal 12 aa], the protein stability index by setting is: under setting [1], 0.6799 ± 0.0043; (genetic background: wild type) 0.678 ± 0.0079.
EYSKKYLTTFFQ [YEA6 C-terminal 12 aa]: the protein stability index is, setting by setting: under setting [1], 0.706 ± 0.025; (genetic background: wild type) 0.722 ± 0.03.
Regarding FAAVSFVLGTGI [NCW1 C-terminal 12 aa], the protein stability index runs as follows: under setting [1], 0.714 ± 0.008; (genetic background: wild type) 0.709 ± 0.017.
Take FAEYNRLSAIPV [LAM1 C-terminal 12 aa]: the protein stability index under setting [1] was found to be 0.447 ± 0.015 and the protein stability index (genetic background: wild type) was 0.478 ± 0.02.
For FAGENFHHGDKL [ENO1 C-terminal 12 aa], the protein stability index by setting is: under setting [1], 0.707 ± 0.016; (genetic background: wild type) 0.706 ± 0.0078.
As for FCHGAEDAWNIL [EMG1 C-terminal 12 aa], the protein stability index by setting is: under setting [1], 0.7275 ± 0.0017; (genetic background: wild type) 0.712 ± 0.012.
FCIFNNVVFPML [RRT1 C-terminal 12 aa]: the protein stability index came out at 0.717 ± 0.011 under setting [1] and 0.7002 ± 0.0035 (genetic background: wild type).
In the case of FCMGVAAFVTTA [UTP21 C-terminal 12 aa], the protein stability index reads like this: under setting [1], 0.493 ± 0.013; (genetic background: wild type) 0.497 ± 0.0075.
With FDDDLTAQLYYP [TDA8 C-terminal 12 aa], the protein stability index runs as follows: under setting [1], 0.7291 ± 0.0033; (genetic background: wild type) 0.744 ± 0.043.
Consider FDTSAQSDRKHS [DCV1 C-terminal 12 aa], for which the protein stability index by setting is: under setting [1], 0.719 ± 0.011; (genetic background: wild type) 0.692 ± 0.018.
Turning to FEDCCRWNEKQG [HIS6 C-terminal 12 aa], the protein stability index was 0.668 ± 0.022 under setting [1] and 0.694 ± 0.016 (genetic background: wild type).
Turning to FENGGKLKEVDK [MDM35 C-terminal 12 aa], the protein stability index reads like this: under setting [1], 0.686 ± 0.01; (genetic background: wild type) 0.7211 ± 0.0027.
Taken in the same sequence, the figures for “FFFPLFLFLYHL [YHR180W-A C-terminal 12 aa]” were 0.436 ± 0.0054 and 0.306 ± 0.0032.
Taken in the same sequence, the figures for FFMIMVMVINFI [FIG2 C-terminal 12 aa] were 0.195 ± 0.03 and 0.199 ± 0.0042.
Consider FFTKLFKKKSSR [MSC3 C-terminal 12 aa], for which the protein stability index reads like this: under setting [1], 0.705 ± 0.02; (genetic background: wild type) 0.6832 ± 0.0021.
Taken in the same sequence, the figures for FFVFLFWWIFLK [SEC22 C-terminal 12 aa] were 0.155 ± 0.019 and 0.131 ± 0.015.
Take FGQDGCLYIYNQ [YHR045W C-terminal 12 aa]: the protein stability index reads like this: under setting [1], 0.713 ± 0.015; (genetic background: wild type) 0.698 ± 0.021.
For FHTLENHLKGNS [ADR1 C-terminal 12 aa], in that order: 0.697 ± 0.02 and 0.731 ± 0.064.
Take FIAQAEAEAETD [GRS1 C-terminal 12 aa]: the protein stability index reads like this: under setting [1], 0.688 ± 0.014; (genetic background: wild type) 0.669 ± 0.017.
As for FIRKIYSAIKVE [TMN2 C-terminal 12 aa], the protein stability index by setting is: under setting [1], 0.385 ± 0.012; (genetic background: wild type) 0.268 ± 0.016.
FKIFAKLFCTRK [HLR1 C-terminal 12 aa]: the protein stability index under setting [1] came out at 0.71093 ± 0.00038 and the protein stability index (genetic background: wild type) amounted to 0.6936 ± 0.0041.
On to FKKSVDQMNAST [PSY2 C-terminal 12 aa], for which the protein stability index was 0.692 ± 0.026 under setting [1] and 0.691 ± 0.017 (genetic background: wild type).
Regarding “FLSNEPTFLGCV [YPL135C-A C-terminal 12 aa]”, the protein stability index under setting [1] turned out to be 0.72 ± 0.018 and the protein stability index (genetic background: wild type) turned out to be 0.722 ± 0.033.
As to FLVNTTNKKESD [YIL092W C-terminal 12 aa], the protein stability index is 0.6861 ± 0.004 under setting [1] and 0.693 ± 0.024 (genetic background: wild type).
FMSNTLFNSSLV [YPR003C C-terminal 12 aa]: the protein stability index by setting is: under setting [1], 0.668 ± 0.012; (genetic background: wild type) 0.693 ± 0.037.
On to FQRRSISGLGDL [INP1 C-terminal 12 aa], for which the protein stability index under setting [1] came out at 0.711 ± 0.0092 and the protein stability index (genetic background: wild type) was 0.676 ± 0.031.
Consider FQTITGEEKEKK [ECM16 C-terminal 12 aa], for which the protein stability index reads like this: under setting [1], 0.708 ± 0.027; (genetic background: wild type) 0.728 ± 0.023.
For FRSQRLHMDSKP [BUD27 C-terminal 12 aa], in that order: 0.727 ± 0.018 and 0.6682 ± 0.0053.
With FSALMGESDDEE [TIF4631 C-terminal 12 aa], the protein stability index by setting is: under setting [1], 0.659 ± 0.019; (genetic background: wild type) 0.678 ± 0.047.
